{"source": "the nanobody polyreactivity screen of Harvey et al. (2022)", "assay": "yeast display, Sf9 membrane polyspecificity reagent, FACS + sequencing; frameworks hold sequencing errors", "outline": "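Genes from sorted yeast were amplified by colony PCR, read by MiSeq 2 × 250 sequencing and filtered on CDR length. These cells carried a synthetic nanobody library in Saccharomyces cerevisiae BJ5465 and were sorted by FACS into low and high (top ~1%) gates on anti-HA and streptavidin fluorescence. Polyreactivity is labelled according to the gate of origin.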", "data": [{"sequence": "QVKLVESGGGLDQAGGSLRLSCSASRSTFWHYAMGWYRQAPGKERELVASISGRGTSTYYADSVKGRFTISRDNAKNTVFFQMNSLKPEDTAVYYCAATKWFGAFDYWGQGTQVTVSS", "values": [{"measurement": "polyreactivity (PSR sort gate)", "result": "low polyreactivity"}]}, {"sequence": "QVQLVESGGGLVQSGGSLRLSCAASGFTFASYAMGWYRQAPGKERELVAAIDSDDSTNYADSVKGRFTISRDNAKNTVYLQMNSLKPEDTAVYYCAADEGPYYGIYEYYYWGQGTQVTVSS", "values": [{"measurement": "polyreactivity (PSR sort gate)", "result": "high polyreactivity"}]}, {"sequence": "QVQLVESGGGLVQAGGSLRLSCAASGSIFPGYAMGWYRQAPGKERELVATITYSDGSTYYADSVKRRFTISRDIATNTVFLQMNSLKPEDTAGYYCAVTYWWYYGYDYWGQGTQVTVSS", "values": [{"measurement": "polyreactivity (PSR sort gate)", "result": "low polyreactivity"}]}, {"sequence": "QVQLVESGGGLVQAGGSLRLSCAASGFIFEYYAMGGYRQAPGKERELVAAISGGGRTYYADSVKGRFTISRDNAKNTVYLQMNSLKPEDTAVYYCAAGYAYRGYWVNRITRDGYWGQGTQVTVSS", "values": [{"measurement": "polyreactivity (PSR sort gate)", "result": "high polyreactivity"}]}, {"sequence": "QVQLVESGGGLVQAGGSLRLSCAASGRTFEYYAMGWYRPAPGKERELVAAITYSGDSTYYADSVKGRFTISRDNAKNTVYLQMNSLKPEDTAVYYCAADWSSLKDDYWGQGTQVTVSS", "values": [{"measurement": "polyreactivity (PSR sort gate)", "result": "low polyreactivity"}]}, {"sequence": "QVQLVESGGGLFQAGGSLRISCAATGSTFGSYAMGWYRQAPGKERELVAAISVGGGSTYYADSVKGRFTISRDNAKNTVYLKMNSLKPEDTAVFYCAATAPRWHHFYHWGQGTQVTVSS", "values": [{"measurement": "polyreactivity (PSR sort gate)", "result": "high polyreactivity"}]}, {"sequence": "QVQLVESGGGLVQAGGSLRLSCAASGSIFVDNDMGWYRPAPGKERELVAAIRSSGTSTYYADSVKGRFTISRDNAKNTVYLQMNSLKPEDTAVYYCATRYPRRHVYPKPYYYWGQGTQVTVSS", "values": [{"measurement": "polyreactivity (PSR sort gate)", "result": "low polyreactivity"}]}, {"sequence": "QVQLVESVGGLLQAGGTLRLSCAASGITFLDYGRGWYRQATGKERELVATINSGGSTNYADSVKGRFTISRDNAKHTVYLLMNSLKAEDTAVYYCDADYGSDYPKGDYWGQGTQVTVTS", "values": [{"measurement": "polyreactivity (PSR sort gate)", "result": "low polyreactivity"}]}, {"sequence": "QVQLVESGGGLVQAGGSLRLSCAASGSIFRWYAMGWSRQAPGKERQLVAAIRGNGASTYYADSVKGRFTISRDNAKNTVYLQMNSLKPEDTAVYYCAAYPSFYHSQYGYWGQGTQVTVSS", "values": [{"measurement": "polyreactivity (PSR sort gate)", "result": "high polyreactivity"}]}, {"sequence": "QVQLVESGGGLVQAGGSLRLSCAASGRIFNYNAIGWYRQAPGKERELVAAITCSGGSTYYADSVKGRFTISRDNAQYNVYLQMNSLKPEDTAVYYCIALITYSSDYWGQGTQVTVSS", "values": [{"measurement": "polyreactivity (PSR sort gate)", "result": "low polyreactivity"}]}, {"sequence": "QVQLVESGGGLVQAGGSLRLSCAASGRTFGRYAMGWYRQAPGKERELVATITRGDSTYYADSVKGRFTISRDNAKNKVYLQMNSLKPEDTAVYYCAADWHRWYLDYDYWGQGTQVTVSS", "values": [{"measurement": "polyreactivity (PSR sort gate)", "result": "low polyreactivity"}]}, {"sequence": "QVQLVESGGGLVQAGGSLRLSCAASGRIIGGYAMGWYRQAPGKERELVAAITFRSGTTYYADSVKGRFTISRDNAKNTVYLQMNSLKPEDTAVYYCAARWGPYAFTYVRTYDYWGQGTQVTVSS", "values": [{"measurement": "polyreactivity (PSR sort gate)", "result": "low polyreactivity"}]}, {"sequence": "QVQLVESGGGLVQAGGSLRLSCAASGRIFVRYAMGWYRQAPGKERELVAAISSRGGTTYYADSVKGRFTISRDNAKNTVYLQMNSLKPEDTAVYYCAALYDSTYGGVLFDYWGQGTQVTVSS", "values": [{"measurement": "polyreactivity (PSR sort gate)", "result": "low polyreactivity"}]}, {"sequence": "QVQLVESGGGLVQAGGSLRLSCAASGFIFRRNAMGWYRQAPGKERELVAVISSRGGTYYADSVKGRFTISRDNAKNTVYLQMNSLKPEDTAVYYCAVDRGKYFPYRYDYWGQGTQVTVSS", "values": [{"measurement": "polyreactivity (PSR sort gate)", "result": "high polyreactivity"}]}, {"sequence": "QVQLVESGGGLVQAGGSLRLSCAASGFTFERNTMGWYRPAPGKERELVATITRRGTSTYYADSVKGRFTISRDNAKNTVYLQMNSLKPEDTAVYYCARGQYSHRSQAGMDYWGQGTQVTVSS", "values": [{"measurement": "polyreactivity (PSR sort gate)", "result": "high polyreactivity"}]}, {"sequence": "QVQLVESGGGLVQAGGSLRLSCAASGSIVVPYTMGWYRQAPGKEMELVAAINSSDDSTFYADSVKGRFTISRENAKNTVYIKMNSLKPEDTAVYYCNATGYARWYTGDYWGQGTQVTVSS", "values": [{"measurement": "polyreactivity (PSR sort gate)", "result": "low polyreactivity"}]}, {"sequence": "QVQLVESGGGLVQAGGSLRLSCAASGIISPFYAMGWYRQATGKERELVADISTGGTTTYADSVKGRFTISRDNAKNTVYLQLNSLKPEDTAVYYCNAEVSLTYYWIVWASYDYWGQGTQVTVSS", "values": [{"measurement": "polyreactivity (PSR sort gate)", "result": "low polyreactivity"}]}]}
